Reference: patent publication US20030031664A1 (GENERAL HOSPITAL, published 2003)

Columns and labels:
[1] = biological target: ferret α2-antiplasmin (ferret); experiment: cell-based or functional assay
[2] = biological target: T1, human alpha-2-antiplasmin (human, UniProt P08697 40-491, limits assumed, 125I-labelled in the radioimmunoassays; biotinylated in the competition assay of Example 5); experiment: cell-based or functional assay
T1 sequence (looked up): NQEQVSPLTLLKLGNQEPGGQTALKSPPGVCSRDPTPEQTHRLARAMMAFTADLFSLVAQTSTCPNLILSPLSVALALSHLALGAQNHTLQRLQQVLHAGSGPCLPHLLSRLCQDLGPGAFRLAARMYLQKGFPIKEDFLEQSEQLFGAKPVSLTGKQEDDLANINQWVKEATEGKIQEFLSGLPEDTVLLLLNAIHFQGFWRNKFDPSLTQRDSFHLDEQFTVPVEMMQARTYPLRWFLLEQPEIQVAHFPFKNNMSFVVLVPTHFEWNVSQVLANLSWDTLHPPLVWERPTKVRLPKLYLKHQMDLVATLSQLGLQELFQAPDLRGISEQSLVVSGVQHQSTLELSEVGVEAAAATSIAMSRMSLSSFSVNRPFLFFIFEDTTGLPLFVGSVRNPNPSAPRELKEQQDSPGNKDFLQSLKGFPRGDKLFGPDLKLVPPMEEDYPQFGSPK

B1: monoclonal antibody 77A3 (antibody, V domains shown)
VH: QIQLVQSGPELKKPGETVKISCKASGYTFTNYGMNWVKQAPGKGLKWMGWINTKSGEPTYAEEFKGRFAFSLETSASTANLQIKNLKNEDTATYFCARWVPGTYAMDYWGQGTSVTVSS
VL: DIQMTQSPASLSASVGETVTITCRASGNIHNYLAWYQQKQGKSPQLLVYNAKTLADGVPSRFSGSGSGTQFSLKINSLQPEDFGSHYCQHFWTTPWTFGGGTKLEIK
With B1 the inhibition of ferret α2AP activity in plasma, ex vivo, 1 and 4 hours after 22.5 mg/kg i.v. (chromogenic plasmin inhibition assay) [1] was 75% and the “increase in potency of lysis by urokinase (dose response with and without MAb)” value [2] was roughly 100 fold.
